B1: Protein PTHB1 (Homo sapiens), Q3SYG4 (parent)
chain: MSLFKARDWWSTILGDKEEFDQGCLCLANVDNSGNGQDKIIVGSFMGYLRIFSPHPAKTGDGAQAEDLLLEVDLRDPVLQVEVGKFVSGTEMLHLAVLHSRKLCVYSVSGTLGNVEHGNQCQMKLMYEHNLQRTACNMTYGSFGGVKGRDLICIQSMDGMLMVFEQESYAFGRFLPGFLLPGPLAYSSRTDSFLTVSSCQQVESYKYQVLAFATDADKRQETEQQKLGSGKRLVVDWTLNIGEQALDICIVSFNQSASSVFVLGERNFFCLKDNGQIRFMKKLDWSPSCFLPYCSVSEGTINTLIGNHNNMLHIYQDVTLKWATQLPHIPVAVRVGCLHDLKGVIVTLSDDGHLQCSYLGTDPSLFQAPNVQSRELNYDELDVEMKELQKIIKDVNKSQGVWPMTEREDDLNVSVVVSPNFDSVSQATDVEVGTDLVPSVTVKVTLQNRVILQKAKLSVYVQPPLELTCDQFTFEFMTPDLTRTVSFSVYLKRSYTPSELEGNAVVSYSRPTDRNPDGIPRVIQCKFRLPLKLICLPGQPSKTASHKITIDTNKSPVSLLSLFPGFASQSDDDQVNVMGFHFLGGARITVLASKTSQRYRIQSEQFEDLWLITNELILRLQEYFEKQGVKDFACSFSGSIPLQEYFELIDHHFELRINGEKLEELLSERAVQFRAIQRRLLARFKDKTPAPLQHLDTLLDGTYKQVIALADAVEENQGNLFQSFTRLKSATHLVILLIALWQKLSADQVAILEAAFLPLQEDTQELGWEETVDAAISHLLKTCLSKSSKEQALNLNSQLNIPKDTSQLKKHITLLCDRLSKGGRLCLSTDAAAPQTMVMPGGCTTIPESDLEERSVEQDSTELFTNHRHLTAETPRPEVSPLQGVSE
partner: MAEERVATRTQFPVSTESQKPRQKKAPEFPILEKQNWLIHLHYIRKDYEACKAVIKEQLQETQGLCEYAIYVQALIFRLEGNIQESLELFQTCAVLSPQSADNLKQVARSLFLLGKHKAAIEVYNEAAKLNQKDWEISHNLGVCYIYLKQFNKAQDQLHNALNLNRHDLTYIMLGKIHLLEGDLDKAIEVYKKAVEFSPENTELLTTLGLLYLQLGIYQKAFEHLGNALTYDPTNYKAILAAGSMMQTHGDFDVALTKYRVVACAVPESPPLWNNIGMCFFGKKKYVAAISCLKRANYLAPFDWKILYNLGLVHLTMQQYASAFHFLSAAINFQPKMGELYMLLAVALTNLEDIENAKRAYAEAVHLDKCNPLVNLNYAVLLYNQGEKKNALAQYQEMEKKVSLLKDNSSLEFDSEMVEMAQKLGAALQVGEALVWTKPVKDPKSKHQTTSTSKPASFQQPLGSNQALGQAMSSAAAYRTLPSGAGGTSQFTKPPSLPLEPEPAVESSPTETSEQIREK

Variants of: B1
Settings: with bbs4_human BBS4, Q96RK4

effect of a mutation on the interaction | Variant
with no effect | P530K
with no effect | P438E
with no effect | A774E
with no effect | E408K
with no effect | T763K
with no effect | S545E
with no effect | K781E
with no effect | Y490K
with no effect | D773K
with no effect | E790A
with no effect | R868E
with no effect | L533K
disrupting interaction strength | Q462T
with no effect | T874K
with no effect | L720A
with no effect | L720E
with no effect | L720K
with no effect | M837E
with no effect | L695E
disrupting interaction strength | G701E
with no effect | V749A
with no effect | V749K
with no effect | K687E
with no effect | E501K
with no effect | E857K
with no effect | G822K

effect of a mutation on the interaction | Variant
with no effect | H581K
with no effect | P540A
with no effect | E878A
with no effect | E878K
with no effect | I617K
with no effect | V416K
with no effect | P802K
with no effect | Q426E
with no effect | R679K
with no effect | T782A
with no effect | N553A
with no effect | A708E
with no effect | G841K
with no effect | T613A
with no effect | S507K
with no effect | F624E
with no effect | N420E
with no effect | G659K
with no effect | V415E
with no effect | A710K
with no effect | A710E
with no effect | S568E
with no effect | P479A
with no effect | L529K
disrupting interaction strength | L529P
with no effect | H811E

effect of a mutation on the interaction | Variant
with no effect | L648K
with no effect | Q883K
with no effect | K630A
with no effect | L560A
with no effect | V856A
with no effect | T595K
disrupting interaction strength | C826R
with no effect | S561K
with no effect | R600A
with no effect | D608K
with no effect | F646K
with no effect | F646E
with no effect | T829A
with no effect | T549E
with no effect | D429A
with no effect | K704E
with no effect | L799A
with no effect | V485K
with no effect | T543A
with no effect | T543E
with no effect | V461K
with no effect | V461E
with no effect | L752E
with no effect | L795A
with no effect | Q569E
with no effect | S806E

effect of a mutation on the interaction | Variant
with no effect | S806A
with no effect | S860E
with no effect | L559E
with no effect | T484E
with no effect | Q858E
disrupting interaction strength | P463T
with no effect | V590E
with no effect | P834E
with no effect | V713A
with no effect | E753K
with no effect | M578E
with no effect | Q471K
with no effect | Q471E
with no effect | P520E
with no effect | L655K
with no effect | L655A
with no effect | Q643K
with no effect | E647A
with no effect | K728A
with no effect | K810A
with no effect | S423E
with no effect | S423K
with no effect | G502A
with no effect | G502E
with no effect | Q597E
with no effect | E862K

effect of a mutation on the interaction | Variant
with no effect | A755K
with no effect | E761A
with no effect | L815E
with no effect | Y495E
with no effect | S570E
with no effect | V629K
with no effect | C783A
with no effect | S729K
disrupting interaction strength | A739K
with no effect | L452A
disrupting interaction strength | L452S
disrupting interaction strength | P691L
with no effect | I751E
with no effect | F756A
with no effect | S787K
with no effect | S787E
disrupting interaction strength | V440K
with no effect | V440A
with no effect | I612A
with no effect | D410E
with no effect | T496A
with no effect | R669K
with no effect | G628K
with no effect | V506K
with no effect | Q791A
with no effect | Q791K

effect of a mutation on the interaction | Variant
with no effect | L616K
with no effect | E853K
with no effect | K443A
with no effect | R818A
with no effect | S828E
with no effect | D700A
with no effect | T702E
with no effect | D747E
with no effect | V432E
with no effect | L436A
disrupting interaction strength | R674P
with no effect | R674K
with no effect | G585A
with no effect | D859K
with no effect | N503A
with no effect | Q807A
with no effect | Q807K
disrupting interaction strength | S723K
disrupting interaction strength | R678G
with no effect | L481E
with no effect | I812E
with no effect | H778A
with no effect | M477K
with no effect | R449A
with no effect | R449E
with no effect | S494A

effect of a mutation on the interaction | Variant
with no effect | T813A
with no effect | D551E
with no effect | P758K
with no effect | T836E
with no effect | L446K
with no effect | L446A
with no effect | I649K
with no effect | R619A
with no effect | P564A
with no effect | L680K
with no effect | A670E
disrupting interaction strength | Q835M
with no effect | I846A
with no effect | R407K
with no effect | H732K
with no effect | L562E
disrupting interaction strength | G718S
with no effect | E715A
with no effect | V879K
with no effect | G767K
with no effect | S637A
disrupting interaction strength | V838E
disrupting interaction strength | E770A

Reference: IntAct's records for PubMed 29039417
